T1: CLDN6 endogenously expressed by human cancer cell lines (ARK2, OVCA429) (human, UniProt P56747 1-220)
T1 construct: Untagged endogenous protein; also called Endogenous CLDN6+
T1 sequence: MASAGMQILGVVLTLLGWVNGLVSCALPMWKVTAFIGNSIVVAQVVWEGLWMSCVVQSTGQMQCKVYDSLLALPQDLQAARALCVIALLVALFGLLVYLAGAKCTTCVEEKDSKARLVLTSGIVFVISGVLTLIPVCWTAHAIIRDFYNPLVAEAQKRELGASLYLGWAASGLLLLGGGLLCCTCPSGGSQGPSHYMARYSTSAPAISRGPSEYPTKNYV

T2: human CLDN6 fused to GFP, expressed on engineered HEK293T cells (HEK293T-CLDN6-mGFP) (human, UniProt P56747 1-220)
T2 construct: It calls residues 1-21 a signal peptide; also called Claudin-6; HEK293T-CLDN6-mGFP Artificial CLDN6+; not shown: mGFP tag
T2 sequence: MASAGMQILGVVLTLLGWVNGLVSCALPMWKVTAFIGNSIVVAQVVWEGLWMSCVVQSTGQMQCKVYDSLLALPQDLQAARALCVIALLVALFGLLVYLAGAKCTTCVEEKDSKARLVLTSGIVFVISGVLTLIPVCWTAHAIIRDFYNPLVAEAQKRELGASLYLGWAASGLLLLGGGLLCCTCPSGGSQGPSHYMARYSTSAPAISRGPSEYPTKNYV


Tests used:
[1] = target: T1, CLDN6 endogenously expressed by human …; assay: FACS, 1.5 µg Ab, OVCA429 cells
[2] = target: T1, CLDN6 endogenously expressed by human …; assay: FACS, 0.3 µg Ab, ARK2 cells
Protocol: (§1) FACS assays were also carried out to determine relative antigen binding strengths of the humanized antibodies (at either 1.5 μg or 0.3 μg) for binding to CLDN6 as expressed by the indicated cancer cell lines. 2nd Ab only was used as a negative control.

[3] = target: T2, human CLDN6 fused to GFP, expressed on …; assay: FACS, 1.5 µg Ab, 293T clone with human CLDN6
Summary of the method: (§2)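 Engineered 293T clones expressing human CLDN6 were detached with EDTA and incubated with Alexa Fluor 647 NHS ester-labelled humanized antibody, at 0.3 µg or 1.5 µg, for 30 min on ice in the dark. After washing, the cells were read by flow cytometry on a BD Accuri C6 in channel FL4H. Fluorescence in this direct-binding assay reflects relative antigen binding strength.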

[4] = target: T2, human CLDN6 fused to GFP, expressed on …; assay: FACS, 0.3 µg Ab, 293T clone with human CLDN6
Summary of the method: as §2

[5] = target: T1, CLDN6 endogenously expressed by human …; assay: FACS, 1.5 µg Ab, ARK2 cells
Protocol: as §1

Binder | FACS fluorescence [1] | FACS fluorescence [2] | FACS fluorescence [3] | FACS fluorescence [4] | FACS fluorescence [5]
AB3-3 (antibody, V domains shown, also called Humanized AB 3-3) VH: EVQLLESGGGLVQPGGSMRLSCAASGFTFSNYWMNWVRQAPGKGLEWVAQIRLKSDNYATHYADSVKGRFTISRDDSKNTVYLQMNSLRAEDTGVYYCNDGPPSGCWGQGTLLTVSS VL: DIQMTQSPSSLSASVGDRVTITCRISENIYSYLAWYQQKPGKAPKLLVYNAKILVEGVPSRFSGSGSGTDFTLTISSLQPEDFGTYYCQHHYTVPWTFGQGTKLEIK | 88700 | 1160 | 340000 | 251000 | 54900
AB3-2 (antibody, V domains shown, also called Humanized AB 3-2) VH: EVQLLESGGGLVQPGGSMRLSCAASGFTFSNYWMNWVRQAPGKGLEWVAQIRLKSDNYATHYADSVKGRFTISRDDSKNTVYLQMNSLRAEDTGVYYCNDGPPSGCWGQGTLLTVSS VL: DIQMTQSPSSLSASVGDRVTITCRISENIYSYLAWYQQKPGKAPKLLIYNAKILVEGVPSRFSGSGSGTDFTLTISSLQPEDFATYYCQHHYTVPWTFGQGTKLEIK | 85900 | 14700 | 396000 | 309000 | 33600
AB3-4 (antibody, V domains shown, also called Humanized AB 3-4) VH: EVQLLESGGGLVQPGGSMRLSCAASGFTFSNYWMNWVRQAPGKGLEWVAQIRLKSDNYATHYADSVKGRFTISRDDSKNTVYLQMNSLRAEDTGVYYCNDGPPSGYWGQGTLLTVSS VL: DIQMTQSPSSLSASVGDRVTITCRISENIYSYLAWYQQKPGKAPKLLIYNAKILVEGVPSRFSGSGSGTDFTLTISSLQPEDFATYYCQHHYTVPWTFGQGTKLEIK | 2960 | 1320 | 55800 | 11600 | 1460
AB3-5 (antibody, V domains shown, also called Humanized AB 3-5) VH: EVQLLESGGGLVQPGGSMRLSCAASGFTFSNYWMNWVRQAPGKGLEWVAQIRLKSDNYATHYADSVKGRFTISRDDSKNTVYLQMNSLRAEDTGVYYCNDGPPSGYWGQGTLLTVSS VL: DIQMTQSPSSLSASVGDRVTITCRISENIYSYLAWYQQKPGKAPKLLVYNAKILVEGVPSRFSGSGSGTDFTLTISSLQPEDFGTYYCQHHYTVPWTFGQGTKLEIK | 2950 | 1280 | 48600 | 13300 | 2910
AB4-4 (antibody, V domains shown, also called Humanized AB 4-4) VH: QVQLVQSGAEVKKPGASVKMSCKASGYTFTSYTMHWIRQAPGQGLEWIGYINPSSTYTHYAQKFQGRATLTADTSTSTAYMELSSLRSEDTAVYYCSRGELGGFAYWGQGTLVTVSS VL: DVVMTQSPLSLPVTLGQPASISCRSSQSLVHSDGNTYLNWYQQRPGQSPRLLIYKVSNRFSGVPDRFSGSGSGTDFTLKISRVEAEDVGVYYCSQSTHVPYTFGQGTKLEIK | 1200 | 1050 | 49000 | 14100 | 1400
AB18-3 (antibody, V domains shown, Humanized; also called Humanized AB 18-3) VH: QVQLVQSGAEVKKPGASVKVSCKASGYSFTGYNMNWVRQAPGQGLEWMGNIDPYYGGSTYAQKFQGRVTMTVDTSTSTVYMELSSLRSEDTAVYYCARERSGYVFSAMDYWGQGTLVTVSS VL: not shown | 2700 | 1080 | 58900 | 30400 | 1210
AB18-5 (antibody, V domains shown, also called Humanized AB 18-5) VH: QVQLVQSGAEVKKPGASVKISCKASGYSFTGYNMNWVRQAPGQGLEWIGNIDPYYGGSTYAQKFQGRATLTVDTSTSTAYMELSSLRSEDTAVYYCARERSGYVFSAMDYWGQGTLVTVSS VL: not shown | 4270 | 1310 | 51900 | 29400 | 1330
AB18-6 (antibody, V domains shown, also called Humanized AB 18-6) VH: QVQLVQSGAEVKKPGASVKISCKASGYSFTGYNMNWVRQAPGQGLEWIGNIDPYYGGSTYAQKFQGRATLTVDTSTSTAYMELSSLRSEDTAVYYCARERSGYVFSAMDYWGQGTLVTVSS VL: DIVMTQSPDSLAVSLGERVTMNCKSSQSVLFSSNQKNYLAWYQQKPGQPPKLLIYWASTRESGVPDRFSGSGSGTDFTLTISSVQAEDVAVYYCHQYLSSRTFGQGTKLEIK | 6750 | 1390 | 58500 | 26900 | 1940
AB9-chim (antibody, V domains shown, 'chim' is the pre-humanized form (parental variable regions); also called pre-humanized (chimeric) form of AB9) VH: EVQLQQSGPELVKPGASVKMSCKASGYRFTDYNMHWVKQSHGKSLEWIGYINPNNGGTNYNQNFKGKATLTVNKSSSTAYMELRSLTSEDSAAYYCARDYLYFFDCWGQGTTLTVSS VL: DIQMTQSPASQSASLGESVTITCLASQTIGTWLAWYQQKPGKSPQLLIYAAASLADGVPSRFSGSGSGTRFSFKISSLQAEDFVSYYCQQLYSIPRTFGGGTKLEIK | 3570 | 3510 | 72000 | 46700 | 4490

Now from value to binder:

FACS fluorescence [1] | FACS fluorescence [2] | FACS fluorescence [3] | FACS fluorescence [4] | FACS fluorescence [5] | Binder
66000 | 5810 | 210000 | 98800 | 17600 | AB1-8 (antibody, V domains shown, Humanized; also called Humanized AB 1-8) VH: QVQLVQSGAEVKKPGASVKMSCKASGYTFTTYTMHWVRQAPGQGLEWIGFINPSSGYTDYAQKFQGRVTLTADTSTSTVYMELSSLRSEDTAVYYCANGDYYVAYWGQGTLVTVSS VL: DIQLTQSPSSLSASVGDRVTMTCTASSSVSSTYFHWYQQKPGKAPKLWIYSTSNLASGVPSRFSGSGSGTDYTLTISSMQPEDAATYYCHQYHRSPLTFGQGTKLEIK
138000 | 17100 | 459000 | 267000 | 29100 | AB3-chim (antibody, V domains shown, 'chim' is the pre-humanized form (parental variable regions); also called pre-humanized (chimeric) form of AB3) VH: EVKLEESGGGLVQPGGSMKLSCVASGFTFSNYWMNWVRQSPEKGLEWVAQIRLKSDNYATHYAESVKGRFTISRDDSKRSVYLQMNNLRAEDTGTYYCNDGPPSGCWGQGTTLIVSS VL: DIQMTQSPASLSASVGETVTITCRISENIYSYLAWYQQKQGKSPQLLVYNAKILVEGVPSRFSGSGSGTQFSLKINSLQPEDFGNYYCQHHYTVPWTFGGGTKLEIK
1160 | 1190 | 47800 | 14300 | 1520 | AB4-3 (antibody, V domains shown, also called Humanized AB 4-3) VH: QVQLVQSGAEVKKPGASVKVSCKASGYTFTSYTMHWVRQAPGQGLEWMGYINPSSTYTHYAQKFQGRVTMTADTSTSTVYMELSSLRSEDTAVYYCSRGELGGFAYWGQGTLVTVSS VL: DVVMTQSPLSLPVTLGQPASISCRSSQSLVHSDGNTYLNWYQQRPGQSPRLLIYKVSNRFSGVPDRFSGSGSGTDFTLKISRVEAEDVGVYYCSQSTHVPYTFGQGTKLEIK
1350 | 967 | 43400 | 16800 | 1200 | AB4-5 (antibody, V domains shown, also called Humanized AB 4-5) VH: QVQLVQSGAEVKKPGASVKMSCKASGYTFTSYTMHWIRQAPGQGQEWIGYINPSSTYTHYAQKFQGRATLTADTSTSTAYMELSSLRSEDTAVYYCSRGELGGFAYWGQGTLVTVSS VL: DVVMTQSPLSLPVTLGQPASISCRSSQSLVHSDGNTYLNWYQQRPGQSPRLLIYKVSNRFSGVPDRFSGSGSGTDFTLKISRVEAEDVGVYYCSQSTHVPYTFGQGTKLEIK
25500 | 3440 | 135000 | 73800 | 9150 | AB18-chim (antibody, V domains shown, 'chim' is the pre-humanized form (parental variable regions); also called pre-humanized (chimeric) form of AB18) VH: QVQLKQSGPELEKPGASVKISCKASGYSFTGYNMNWVKQSNGKSLEWIGNIDPYYGGSTYNQKFTGKATLTVDKSSSTAYMQLKSLTSEDSAVYYCARERSGYVFSAMDYWGQGTSVTVSS VL: NIMMTQSPSSLAVSAGEKVTMSCKSSQSVLFSSNQKNYLAWYQQKPGQSPRLLIYWASTRESGVPDRFTGSGSGTDFTLTISNVQAEDLAVYYCHQYLSSRTFGAGTKLELK
3220 | 1130 | 54400 | 32400 | 1380 | AB18-4 (antibody, V domains shown, also called Humanized AB 18-4) VH: QVQLVQSGAEVKKPGASVKVSCKASGYSFTGYNMNWVRQAPGQGLEWMGNIDPYYGGSTYAQKFQGRVTMTVDTSTSTVYMELSSLRSEDTAVYYCARERSGYVFSAMDYWGQGTLVTVSS VL: DIVMTQSPDSLAVSLGERVTMNCKSSQSVLFSSNQKNYLAWYQQKPGQPPKLLIYWASTRESGVPDRFSGSGSGTDFTLTISSVQAEDVAVYYCHQYLSSRTFGQGTKLEIK

Reference: US20250333501A1 (University of California, published 2025)
